T1: MPP6, Q9NZW5
T1 sequence (Q9NZW5 125-219, limits assumed, looked up): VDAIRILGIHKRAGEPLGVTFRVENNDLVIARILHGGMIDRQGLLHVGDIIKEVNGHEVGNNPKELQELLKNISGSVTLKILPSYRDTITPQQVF

T2: LRRC7, Q96NW7
T2 sequence (Q96NW7 1440-1537, limits assumed, looked up): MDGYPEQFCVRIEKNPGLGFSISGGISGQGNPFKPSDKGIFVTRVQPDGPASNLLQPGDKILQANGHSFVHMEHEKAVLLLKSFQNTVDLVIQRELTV

T3: CARD11, Q9BXL7
T3 sequence (Q9BXL7 662-765, limits assumed, looked up): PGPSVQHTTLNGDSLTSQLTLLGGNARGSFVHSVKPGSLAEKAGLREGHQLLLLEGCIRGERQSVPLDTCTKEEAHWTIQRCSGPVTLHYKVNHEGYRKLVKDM

T4: RAPGEF6, Q8TEU7
T4 sequence (Q8TEU7 525-625, limits assumed, looked up): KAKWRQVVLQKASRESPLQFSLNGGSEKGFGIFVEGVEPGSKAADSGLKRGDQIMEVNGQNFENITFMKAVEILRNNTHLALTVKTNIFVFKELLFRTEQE

T5: RADIL, Q96JH8
T5 sequence (Q96JH8 971-1071, limits assumed, looked up): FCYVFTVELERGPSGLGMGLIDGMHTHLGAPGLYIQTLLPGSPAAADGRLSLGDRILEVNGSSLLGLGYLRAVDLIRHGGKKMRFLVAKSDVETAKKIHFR

T6: MPDZ_10, O75970
T6 sequence (O75970 1624-1722, limits assumed, looked up): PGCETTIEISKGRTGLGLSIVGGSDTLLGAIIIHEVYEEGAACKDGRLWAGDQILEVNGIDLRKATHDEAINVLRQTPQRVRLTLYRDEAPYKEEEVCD

T7: MPDZ_5, O75970
T7 sequence (O75970 695-796, limits assumed, looked up): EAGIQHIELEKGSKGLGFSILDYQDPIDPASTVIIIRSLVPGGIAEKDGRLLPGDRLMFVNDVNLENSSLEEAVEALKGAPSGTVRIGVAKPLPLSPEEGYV

T8: MPP7, Q5T2T1
T8 sequence (Q5T2T1 134-230, limits assumed, looked up): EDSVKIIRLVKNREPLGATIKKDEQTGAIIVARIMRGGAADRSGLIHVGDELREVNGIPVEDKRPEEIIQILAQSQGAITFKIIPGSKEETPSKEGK

T9: GRIP1_7, Q9Y3R0
T9 sequence (Q9Y3R0 999-1096, limits assumed, looked up): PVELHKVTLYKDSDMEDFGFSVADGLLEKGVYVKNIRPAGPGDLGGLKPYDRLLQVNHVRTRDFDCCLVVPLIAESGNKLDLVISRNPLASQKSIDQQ

T10: GRIP1_2, Q9Y3R0
T10 sequence (Q9Y3R0 145-248, limits assumed, looked up): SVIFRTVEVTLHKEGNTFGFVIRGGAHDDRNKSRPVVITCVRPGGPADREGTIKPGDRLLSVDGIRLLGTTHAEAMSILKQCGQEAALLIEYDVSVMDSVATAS

T11: DFNB31_1, Q9P202
T11 sequence (Q9P202 135-233, limits assumed, looked up): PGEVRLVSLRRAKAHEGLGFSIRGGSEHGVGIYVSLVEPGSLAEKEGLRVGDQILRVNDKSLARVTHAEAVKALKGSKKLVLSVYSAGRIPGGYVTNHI

B1: TMEM151B, Q8IW70 (peptide)
chain: RHGSCVETSL
B2: JAG1, P78504 (peptide)
chain: QSLNRMEYIV

The binders below were run against FRMPD3, Q5JV73 (assay: holdup assay). Settings: plain residues with an end cap or a label only (N-terminal biotin on a linker: ado-ado).
Sequence of FRMPD3, Q5JV73 (Q5JV73 12-100): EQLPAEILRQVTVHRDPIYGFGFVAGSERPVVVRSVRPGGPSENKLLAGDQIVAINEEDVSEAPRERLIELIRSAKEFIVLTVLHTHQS
Design: key: below the threshold = too weak to quantify, mostly under pKd 3.1 to 4

Row | Binder | pKd
1 | B1 | 3.5
2 | B2 | below the threshold

What follows are binders tested against T1, MPP6, Q9NZW5 (assay: holdup assay). Settings: plain residues with an end cap or a label only (N-terminal biotin on a linker: ado-ado).
Design: key: below the threshold = too weak to quantify, mostly under pKd 3.1 to 4

Row | Binder | pKd
3 | B1 | below the threshold
4 | B2 | 3.9

The binders below were run against IL16_1, Q14005 (assay: holdup assay). Settings: plain residues with an end cap or a label only (N-terminal biotin on a linker: ado-ado).
Sequence of IL16_1, Q14005 (Q14005 210-306): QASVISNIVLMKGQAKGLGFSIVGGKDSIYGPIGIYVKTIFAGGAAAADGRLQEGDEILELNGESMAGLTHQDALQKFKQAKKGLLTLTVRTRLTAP
Design: key: below the threshold = too weak to quantify, mostly under pKd 3.1 to 4

Row | Binder | pKd
5 | B1 | 3.62
6 | B2 | 3.91

The binders below were run against DLG4_2, P78352 (assay: holdup assay). Settings: plain residues with an end cap or a label only (N-terminal biotin on a linker: ado-ado).
Sequence of DLG4_2, P78352 (P78352 155-259): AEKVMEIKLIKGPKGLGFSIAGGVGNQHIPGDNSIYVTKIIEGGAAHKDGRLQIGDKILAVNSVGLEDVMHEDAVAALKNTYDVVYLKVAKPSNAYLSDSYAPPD
Design: key: below the threshold = too weak to quantify, mostly under pKd 3.1 to 4

Row | Binder | pKd
7 | B1 | 4.59
8 | B2 | 3.78

Each binder was assayed against GOPC, Q9HD26 (assay: holdup assay). Settings: plain residues with an end cap or a label only (N-terminal biotin on a linker: ado-ado).
Design: key: below the threshold = too weak to quantify, mostly under pKd 3.1 to 4

Row | Binder | pKd
9 | B1 | 4.41
10 | B2 | below the threshold

These binders were tested against T2, LRRC7, Q96NW7 (assay: holdup assay). Settings: plain residues with an end cap or a label only (N-terminal biotin on a linker: ado-ado).
Design: key: below the threshold = too weak to quantify, mostly under pKd 3.1 to 4

Row | Binder | pKd
11 | B1 | 4.08
12 | B2 | below the threshold

Each binder was assayed against HTRA2, O43464 (assay: holdup assay). Settings: plain residues with an end cap or a label only (N-terminal biotin on a linker: ado-ado).
Sequence of HTRA2, O43464 (O43464 355-458): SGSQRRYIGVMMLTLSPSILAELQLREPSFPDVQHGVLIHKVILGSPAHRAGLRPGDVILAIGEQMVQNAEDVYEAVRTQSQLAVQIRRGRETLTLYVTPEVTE
Design: key: below the threshold = too weak to quantify, mostly under pKd 3.1 to 4

Row | Binder | pKd
13 | B1 | below the threshold
14 | B2 | 3.88

Each binder was assayed against FRMPD2_2, Q68DX3 (assay: holdup assay). Settings: plain residues with an end cap or a label only (N-terminal biotin on a linker: ado-ado).
Sequence of FRMPD2_2, Q68DX3 (Q68DX3 944-1038): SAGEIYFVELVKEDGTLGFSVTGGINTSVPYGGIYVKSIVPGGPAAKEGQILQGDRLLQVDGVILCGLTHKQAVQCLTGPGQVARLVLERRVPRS
Design: key: below the threshold = too weak to quantify, mostly under pKd 3.1 to 4

Row | Binder | pKd
15 | B1 | 3.57
16 | B2 | below the threshold

The binders below were run against MAGI2_5, Q86UL8 (assay: holdup assay). Settings: plain residues with an end cap or a label only (N-terminal biotin on a linker: ado-ado).
Sequence of MAGI2_5, Q86UL8 (Q86UL8 915-1017): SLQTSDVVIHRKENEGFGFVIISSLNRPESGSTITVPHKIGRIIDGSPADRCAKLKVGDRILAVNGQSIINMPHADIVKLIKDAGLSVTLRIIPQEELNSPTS
Design: key: below the threshold = too weak to quantify, mostly under pKd 3.1 to 4

Row | Binder | pKd
17 | B1 | 4.22
18 | B2 | below the threshold

What follows are binders tested against T3, CARD11, Q9BXL7 (assay: holdup assay). Settings: plain residues with an end cap or a label only (N-terminal biotin on a linker: ado-ado).
Design: key: below the threshold = too weak to quantify, mostly under pKd 3.1 to 4

Row | Binder | pKd
19 | B1 | below the threshold
20 | B2 | below the threshold

Each binder was assayed against T4, RAPGEF6, Q8TEU7 (assay: holdup assay). Settings: plain residues with an end cap or a label only (N-terminal biotin on a linker: ado-ado).
Design: key: below the threshold = too weak to quantify, mostly under pKd 3.1 to 4

Row | Binder | pKd
21 | B1 | below the threshold
22 | B2 | below the threshold

These binders were tested against T5, RADIL, Q96JH8 (assay: holdup assay). Settings: plain residues with an end cap or a label only (N-terminal biotin on a linker: ado-ado).
Design: key: below the threshold = too weak to quantify, mostly under pKd 3.1 to 4

Row | Binder | pKd
23 | B1 | below the threshold
24 | B2 | 4.82

What follows are binders tested against LDB3, O75112 (assay: holdup assay). Settings: plain residues with an end cap or a label only (N-terminal biotin on a linker: ado-ado).
Sequence of LDB3, O75112 (O75112 1-94): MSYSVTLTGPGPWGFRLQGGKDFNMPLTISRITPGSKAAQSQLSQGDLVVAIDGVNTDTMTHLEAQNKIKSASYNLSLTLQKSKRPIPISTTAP
Design: key: below the threshold = too weak to quantify, mostly under pKd 3.1 to 4

Row | Binder | pKd
25 | B1 | below the threshold
26 | B2 | below the threshold

The binders below were run against Inadl_4, Q8NI35 (assay: holdup assay). Settings: plain residues with an end cap or a label only (N-terminal biotin on a linker: ado-ado).
Sequence of Inadl_4, Q8NI35 (Q8NI35 547-651): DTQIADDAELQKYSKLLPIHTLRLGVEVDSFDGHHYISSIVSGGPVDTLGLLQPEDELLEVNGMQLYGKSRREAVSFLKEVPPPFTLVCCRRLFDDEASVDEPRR
Design: key: below the threshold = too weak to quantify, mostly under pKd 3.1 to 4

Row | Binder | pKd
27 | B1 | below the threshold
28 | B2 | below the threshold

These binders were tested against Inadl_2, Q8NI35 (assay: holdup assay). Settings: plain residues with an end cap or a label only (N-terminal biotin on a linker: ado-ado).
Sequence of Inadl_2, Q8NI35 (Q8NI35 238-335): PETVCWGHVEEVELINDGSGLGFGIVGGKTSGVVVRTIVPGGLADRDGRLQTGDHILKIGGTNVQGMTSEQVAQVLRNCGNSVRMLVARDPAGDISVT
Design: key: below the threshold = too weak to quantify, mostly under pKd 3.1 to 4

Row | Binder | pKd
29 | B1 | below the threshold
30 | B2 | 4.77

What follows are binders tested against GRIP2_6, Q9C0E4 (assay: holdup assay). Settings: plain residues with an end cap or a label only (N-terminal biotin on a linker: ado-ado).
Sequence of GRIP2_6, Q9C0E4 (Q9C0E4 648-740): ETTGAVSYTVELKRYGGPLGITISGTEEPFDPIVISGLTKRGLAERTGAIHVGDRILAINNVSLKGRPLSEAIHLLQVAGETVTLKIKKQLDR
Design: key: below the threshold = too weak to quantify, mostly under pKd 3.1 to 4

Row | Binder | pKd
31 | B1 | below the threshold
32 | B2 | 4.61

What follows are binders tested against T6, MPDZ_10, O75970 (assay: holdup assay). Settings: plain residues with an end cap or a label only (N-terminal biotin on a linker: ado-ado).
Design: key: below the threshold = too weak to quantify, mostly under pKd 3.1 to 4

Row | Binder | pKd
33 | B1 | below the threshold
34 | B2 | below the threshold

Each binder was assayed against MAGI3_2, Q5TCQ9 (assay: holdup assay). Settings: plain residues with an end cap or a label only (N-terminal biotin on a linker: ado-ado).
Sequence of MAGI3_2, Q5TCQ9 (Q5TCQ9 398-503): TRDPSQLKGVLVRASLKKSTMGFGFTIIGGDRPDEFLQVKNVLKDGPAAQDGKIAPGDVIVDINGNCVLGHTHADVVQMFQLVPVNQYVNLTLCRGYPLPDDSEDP
Design: key: below the threshold = too weak to quantify, mostly under pKd 3.1 to 4

Row | Binder | pKd
35 | B1 | 4.06
36 | B2 | 4.73

These binders were tested against T7, MPDZ_5, O75970 (assay: holdup assay). Settings: plain residues with an end cap or a label only (N-terminal biotin on a linker: ado-ado).
Design: key: below the threshold = too weak to quantify, mostly under pKd 3.1 to 4

Row | Binder | pKd
37 | B1 | below the threshold
38 | B2 | 4.07

These binders were tested against NHERF4_1, Q86UT5-2 (assay: holdup assay). Settings: plain residues with an end cap or a label only (N-terminal biotin on a linker: ado-ado).
Sequence of NHERF4_1, Q86UT5-2 (Q86UT5 other isoform, or with tags, fused parts or gaps): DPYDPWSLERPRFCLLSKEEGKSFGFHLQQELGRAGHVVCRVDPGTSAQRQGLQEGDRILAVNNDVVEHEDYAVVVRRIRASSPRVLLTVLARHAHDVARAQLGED
Design: key: below the threshold = too weak to quantify, mostly under pKd 3.1 to 4

Row | Binder | pKd
39 | B1 | 4.51
40 | B2 | below the threshold

What follows are binders tested against T8, MPP7, Q5T2T1 (assay: holdup assay). Settings: plain residues with an end cap or a label only (N-terminal biotin on a linker: ado-ado).
Design: key: below the threshold = too weak to quantify, mostly under pKd 3.1 to 4

Row | Binder | pKd
41 | B1 | below the threshold
42 | B2 | 3.98

Each binder was assayed against T9, GRIP1_7, Q9Y3R0 (assay: holdup assay). Settings: plain residues with an end cap or a label only (N-terminal biotin on a linker: ado-ado).
Design: key: below the threshold = too weak to quantify, mostly under pKd 3.1 to 4

Row | Binder | pKd
43 | B1 | below the threshold
44 | B2 | below the threshold

Each binder was assayed against T10, GRIP1_2, Q9Y3R0 (assay: holdup assay). Settings: plain residues with an end cap or a label only (N-terminal biotin on a linker: ado-ado).
Design: key: below the threshold = too weak to quantify, mostly under pKd 3.1 to 4

Row | Binder | pKd
45 | B1 | below the threshold
46 | B2 | below the threshold

These binders were tested against T11, DFNB31_1, Q9P202 (assay: holdup assay). Settings: plain residues with an end cap or a label only (N-terminal biotin on a linker: ado-ado).
Design: key: below the threshold = too weak to quantify, mostly under pKd 3.1 to 4

Row | Binder | pKd
47 | B1 | 4.61
48 | B2 | below the threshold

What follows are binders tested against MAST1, Q9Y2H9 (assay: holdup assay). Settings: plain residues with an end cap or a label only (N-terminal biotin on a linker: ado-ado).
Sequence of MAST1, Q9Y2H9 (Q9Y2H9 962-1065): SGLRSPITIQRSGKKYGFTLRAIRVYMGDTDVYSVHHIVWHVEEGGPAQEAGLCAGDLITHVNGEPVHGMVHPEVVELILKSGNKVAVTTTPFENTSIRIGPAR
Design: key: below the threshold = too weak to quantify, mostly under pKd 3.1 to 4

Row | Binder | pKd
49 | B1 | 5.12
50 | B2 | 3.49

Each binder was assayed against FRMPD4, Q14CM0 (assay: holdup assay). Settings: plain residues with an end cap or a label only (N-terminal biotin on a linker: ado-ado).
Sequence of FRMPD4, Q14CM0 (Q14CM0 67-160): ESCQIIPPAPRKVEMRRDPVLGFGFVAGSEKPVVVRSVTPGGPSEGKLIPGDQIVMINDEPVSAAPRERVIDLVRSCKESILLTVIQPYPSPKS
Design: key: below the threshold = too weak to quantify, mostly under pKd 3.1 to 4

Row | Binder | pKd
51 | B1 | 4.51
52 | B2 | below the threshold
